Several values for one entry are separate records, joined by “and”; a condition that tells them apart may be missing. Equal values may be shown once.
Target: the molecule itself
Test: single-particle cryo-EM 2D classification

B1: Escherichia coli glutamine synthetase (enzyme, UniProt P0A9C5 1-469, looked up)
chain: MSAEHVLTMLNEHEVKFVDLRFTDTKGKEQHVTIPAHQVNAEFFEEGKMFDGSSIGGWKGINESDMVLMPDASTAVIDPFFADSTLIIRCDILEPGTLQGYDRDPRSIAKRAEDYLRSTGIADTVLFGPEPEFFLFDDIRFGSSISGSHVAIDDIEGAWNSSTQYEGGNKGHRPAVKGGYFPVPPVDSAQDIRSEMCLVMEQMGLVVEAHHHEVATAGQNEVATRFNTMTKKADEIQIYKYVVHNVAHRFGKTATFMPKPMFGDNGSGMHCHMSLSKNGVNLFAGDKYAGLSEQALYYIGGVIKHAKAINALANPTTNSYKRLVPGYEAPVMLAYSARNRSASIRIPVVSSPKARRIEVRFPDPAANPYLCFAALLMAGLDGIKNKIHPGEAMDKNLYDLPPEEAKEIPQVAGSLEEALNELDLDREFLKAGGVFTDEAIDAYIALRREEDDRVRMTPHPVEFELYYSV
  stoichiometry N: 10 subunits and 8 subunits

Source: article doi:10.1101/2022.11.21.517443 (bioRxiv, 2022)
